From paper PMC2808448 (Biochemistry, 2010)

Key:
[1] = molecular target: T1, Sco3058 (Streptomyces coelicolor, UniProt Q93J45); experiment: ninhydrin-based dipeptidase assay, L-Leu-D-Ala substrate; type: biochemical
T1 sequence (Q93J45 1-400): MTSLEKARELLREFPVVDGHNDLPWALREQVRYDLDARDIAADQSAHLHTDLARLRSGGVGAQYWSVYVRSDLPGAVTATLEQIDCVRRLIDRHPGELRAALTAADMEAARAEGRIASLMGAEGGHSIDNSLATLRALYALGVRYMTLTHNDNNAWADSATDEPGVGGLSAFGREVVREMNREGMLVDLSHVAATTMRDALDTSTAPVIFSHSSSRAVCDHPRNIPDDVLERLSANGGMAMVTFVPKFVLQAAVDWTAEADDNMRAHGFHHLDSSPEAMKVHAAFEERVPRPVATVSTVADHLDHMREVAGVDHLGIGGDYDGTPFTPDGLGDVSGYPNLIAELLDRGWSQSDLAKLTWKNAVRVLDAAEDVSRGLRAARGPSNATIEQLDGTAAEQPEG

[2] = molecular target: T1, Sco3058; experiment: crystal structure at […] Å; type: biochemical
[3] = substrate: CC(C)C[C@@H](NC(=O)[C@@H](N)Cc1ccc(O)cc1)C(=O)O; experiment: purified protein; conditions: […] Zn2+
[4] = substrate: CC(C)C[C@H](N)C(=O)N[C@H](C)C(=O)O; experiment: steady-state kinetics of hydrolysis by purified enzyme; type: biochemical, Streptomyces coelicolor; conditions: […] Zn2+
[5] = substrate: CC(C)C[C@H](N)C(=O)N[C@H](CCC(=O)O)C(=O)O; experiment: as above; type: biochemical, Streptomyces coelicolor; conditions: […] Zn2+
[6] = substrate: CSCC[C@H](N)C(=O)N[C@H](CC(C)C)C(=O)O; experiment: as above; type: biochemical, Streptomyces coelicolor; conditions: […] Zn2+
[7] = substrate: CSCC[C@H](N)C(=O)N[C@H](CCC(=O)O)C(=O)O; experiment: as above; type: biochemical, Streptomyces coelicolor; conditions: […] Zn2+
[8] = substrate: N=C(N)NCCC[C@H](N)C(=O)N[C@H](CC(=O)O)C(=O)O; experiment: as above; type: biochemical, Streptomyces coelicolor; conditions: […] Zn2+

Which Ki [1] does the source give for `NC(Cc1ccc(O)cc1)P(=O)(O)CC(CC(=O)O)C(=O)O` (racemic) [compound 3, phosphinate pseudodipeptide mimic of Tyr-Asp] here?
Its Ki is 1.1 ± 0.2 µM.

How did the Ki [1] turn out when `NC(Cc1ccccc1)P(=O)(O)CC(CC(=O)O)C(=O)O` (racemic) [compound 2, phosphinate pseudodipeptide mimic of Phe-Asp] was run?
The Ki was 2.3 ± 0.3 µM.

With `O=C(O)CC(O)(CC(=O)O)C(=O)O` [citrate] as the molecule, how does the Ki [2] read?
Its Ki is 25000 ± 15000 µM.

B1: Sco3058 (Streptomyces coelicolor A3(2)) (protein)
chain: MTSLEKARELLREFPVVDGHNDLPWALREQVRYDLDARDIAADQSAHLHTDLARLRSGGVGAQYWSVYVRSDLPGAVTATLEQIDCVRRLIDRHPGELRAALTAADMEAARAEGRIASLMGAEGGHSIDNSLATLRALYALGVRYMTLTHNDNNAWADSATDEPGVGGLSAFGREVVREMNREGMLVDLSHVAATTMRDALDTSTAPVIFSHSSSRAVCDHPRNIPDDVLERLSANGGMAMVTFVPKFVLQAAVDWTAEADDNMRAHGFHHLDSSPEAMKVHAAFEERVPRPVATVSTVADHLDHMREVAGVDHLGIGGDYDGTPFTPDGLGDVSGYPNLIAELLDRGWSQSDLAKLTWKNAVRVLDAAEDVSRGLRAARGPSNATIEQLDGTAAEQPEG
How did the Km [3] turn out when B1 was run?
The Km was 170 ± 10 µM.

What about the kcat [3] of the same molecule?
Its kcat is 24 s⁻¹.

What about the kcat/Km [3] of the same molecule?
Its kcat/Km is 150000 M⁻¹ s⁻¹.

What about the Km [4] of the same molecule?
The Km was 750 ± 40 µM.

And the kcat [4]?
Its kcat is 160 ± 3 s⁻¹.

What about the kcat/Km [4] of the same molecule?
The kcat/Km was 210000 ± 10000 M⁻¹ s⁻¹.

What about the Km [5] of the same molecule?
Its Km is 550 ± 30 µM.

And the kcat [5]?
Its kcat is 135 ± 2 s⁻¹.

What about the kcat/Km [5] of the same molecule?
Its kcat/Km is 250000 ± 10000 M⁻¹ s⁻¹.

And the Km [6]?
Its Km is 560 ± 30 µM.

What about the kcat [6] of the same molecule?
Its kcat is 194 ± 4 s⁻¹.

What about the kcat/Km [6] of the same molecule?
Its kcat/Km is 350000 ± 30000 M⁻¹ s⁻¹.

What about the Km [7] of the same molecule?
The Km was 890 ± 40 µM.

What about the kcat [7] of the same molecule?
Its kcat is 340 ± 4 s⁻¹.

What about the kcat/Km [7] of the same molecule?
The kcat/Km was 380000 ± 20000 M⁻¹ s⁻¹.

And the Km [8]?
Its Km is 140 ± 20 µM.

What about the kcat [8] of the same molecule?
Its kcat is 107 ± 3.2 s⁻¹.

And the kcat/Km [8]?
The kcat/Km was 760000 ± 90000 M⁻¹ s⁻¹.
